Experimental data from patent US20190270815A1 (WUXI BIOLOGICS IRELAND, published 2019).

T1: murine PD-1 (Sino biological) (murine, UniProt Q02242 25-167, limits assumed)
T1 sequence (looked up): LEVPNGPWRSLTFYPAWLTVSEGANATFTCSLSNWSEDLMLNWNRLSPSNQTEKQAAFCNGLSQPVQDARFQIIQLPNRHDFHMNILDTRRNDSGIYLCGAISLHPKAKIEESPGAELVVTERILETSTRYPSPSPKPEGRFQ


Experiments:
[1] = biological target: T1, murine PD-1 (Sino biological); assay: ELISA on plate-coated murine PD-1
Method: 3.3.1 Cross-reactivity to cynomolgus PD-1 and murine PD-1: Cross-reactivity was measured by ELISA. Plates (Nunc) were coated with cynomolgus PD-1 (Sino Biological) and murine PD-1 (Sino biological) at 1 μg/ml overnight at 4° C. After blocking and washing, […] antibodies were added to the plates and incubated at room temperature for 1 h. The plates were then washed and subsequently incubated with secondary antibody goat anti rat IgG1 HRP (Bethyl) and goat anti rat IgG2b HRP (Bethyl) for 45 min. After washing, TMB substrate was added and the interaction was stopped by 2M HCl. The absorbance at 450 nm was read using a microplate reader (Molecular Device).

[2] = biological target: T2, human PD-1 expressed on cells (human, UniProt Q15116 25-288); assay: FACS on CHO-S cells expressing human PD-1
T2 construct: whole, on cells; also called PD-1 expressing CHO cell; PD-1 transfected CHO-S cells
Method: (§1) 3.1 Binding affinity of PD-1 antibodies to cell surface PD-1 molecules tested by flow cytometry (FACS): Antibody binding affinity to cell surface PD-1 was performed by FACS analysis. CHO-S cells expressing human PD-1 were transferred in to 96-well U-bottom plates (BD) at a density of 5×10⁵ cells/ml. Tested antibodies were 1:2 serially diluted in wash buffer (1×PBS/1% BSA) and incubated with cells at 4° C. for 1 h. The secondary antibody goat anti-human IgG Fc FITC (3.0 moles FITC per mole IgG, (Jackson Immunoresearch Lab) was added and incubated at 4° C. in the dark for 1 h. The cells were then washed once and resuspended in 1×PBS/1% BSA, and analyzed by flow cytometery (BD). Fluorescence intensity will be converted to bound molecules/cell based on the quantitative beads Quantum™ MESF Kits, Bangs Laboratories, Inc.). KD was calculated using Graphpad Prism5.

[3] = biological target: T2, human PD-1 expressed on cells; assay: FACS on CHO-S cells expressing human PD-1, antibody in 1xPBS pH 7.4
Method: as §1

[4] = biological target: T2, human PD-1 expressed on cells; assay: FACS on CHO-S cells expressing human PD-1, antibody in formulation buffer
Method: as §1

T2 sequence (Q15116 25-288): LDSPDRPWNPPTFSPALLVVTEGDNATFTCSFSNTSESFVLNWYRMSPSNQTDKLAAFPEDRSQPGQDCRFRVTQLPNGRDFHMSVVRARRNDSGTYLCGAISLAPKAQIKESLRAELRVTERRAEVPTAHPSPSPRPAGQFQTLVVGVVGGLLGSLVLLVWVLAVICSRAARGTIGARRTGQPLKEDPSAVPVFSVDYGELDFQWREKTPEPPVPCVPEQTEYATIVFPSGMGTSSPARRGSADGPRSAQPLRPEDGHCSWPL

Row | Binder | EC50 [2] | EC50 [3] | EC50 [4] | binding result [1]
1 | 1.153.7 hAb (antibody, V domains shown, fully human monoclonal antibody with a human constant region of IgG4 isotype) VH: EVQLLESGGGLVQPGGSLRLSCAASGFTFSSHAMSWVRQAPGKGLEWVSTITGGGGSIYYADSVKGRFTISRDNSKNTLYLQMNSLRAEDTAVYYCAKNRAGEGYFDYWGQGTLVTVSS VL: SYELTQPLSVSVALGQTARITCGGDNIGNKDVHWYQQKPGQAPVLVIYRDSNRPSGIPEGFSGSNSGNTATLTISRAQAGDEADYYCQVWDSIWVFGGGTKLTVL | ~2 nM |  |  | no binding (tested: 1 g/ml antibodies (so in the source))
2 | 1.7.3 hAb (antibody, V domains shown, fully human monoclonal antibody with a human constant region of IgG4 isotype) VH: QLQLQESGPGLVKPSETLTLTCTVSGDSISSTTYYWVWIRQPPGKGLEWIGSISYSGNTYYNPSLKSRVTISVDTSKNHFSLKLSSVAATDTALYYCARHLGYNGRYLPFDYWGQGTLVTVSS VL: QSALTQPASVSGSPGQSITISCTGTSSDVGFYNYVSWYQQHPGKAPELMIYDVTNRPSGVSDRFSGSKSGNTASLTISGLQAEDEADYYCSSYTSISTWVFGGGTKLTVL | ~2 nM |  |  | no binding (tested: 1 g/ml antibodies (so in the source))
3 | 1.103.11-v2 hAb (antibody, IgG4, V domains shown, human constant region of IgG4 isotype) VH: QLQLQESGPGLVKPSETLTLTCTVSADSISSTTYYWVWIRQPPGKGLEWIGSISYSGSTYYNPSLKSRVTVSVDTSKNQFSLKLNSVAATDTALYYCARHLGYNGRYLPFDYWGQGTLVTVSS VL: QSALTQPASVSGSPGQSITISCTGTSSDVGFYNYVSWYQQHPGKAPELMIYDVSNRPSGVSDRFSGSKSGNTASLTISGLQAEDEADYYCSSYTSISTWVFGGGTKLTVL |  | ~2.52 nM | ~3.12 nM | 

Continued, in another order:

Row | EC50 [2] | EC50 [3] | EC50 [4] | Binder | binding result [1]
4 | ~2 nM |  |  | 1.139.15 hAb (antibody, V domains shown, fully human monoclonal antibody with a human constant region of IgG4 isotype) VH: QLQLQESGPGLVKPSETLSLTCTVSGGSISSTTYYWGWIRQPPGKGLEWIGSISYSGTTYYNPSLKSRVTIPVDTSKNQISLKLSSVTAADTSLYYCARHLGYNSNWYPFDYWGQGTLVTVSS VL: QSALTQPPSVSGSPGQSVTISCTGTSSDVGSYNRVSWYQQPPGTAPEVIIYEVSNRPSGVPDRFSGSKSGNTASLTISGLQAEDEADYYCSSYTSSSTWVFGGGTKLTVL | no binding (tested: 1 g/ml antibodies (so in the source))
5 | ~2 nM |  |  | 1.49.9 hAb (antibody, V domains shown, fully human monoclonal antibody with a human constant region of IgG4 isotype) VH: QLQLQESGPGLVKPSETLSLTCTVSGGSISSSTYYWGWIRQPPGKGLEWIGSISYSGSTYYNPSLKSRVTISVDTSKNQFSLKLSSVTDADTAVYYCARHLGYNGRYLPFDYWGQGTLVTVSS VL: QSALTQPASVSGSPGQSITISCTGTSSDVGFYNYVSWYQQHPGKAPEVMIYDVSNRPSGVSDRFSGSKSGNTASLTISGLQAEDEADYYCSSYTSISTWVFGGGTKLTVL | no binding (tested: 1 g/ml antibodies (so in the source))
